B1: Escherichia coli FtsA (natural protein, E. coli, UniProt P0ABH0 1-420, looked up)
chain: MIKATDRKLVVGLEIGTAKVAALVGEVLPDGMVNIIGVGSCPSRGMDKGGVNDLESVVKCVQRAIDQAELMADCQISSVYLALSGKHISCQNEIGMVPISEEEVTQEDVENVVHTAKSVRVRDEHRVLHVIPQEYAIDYQEGIKNPVGLSGVRMQAKVHLITCHNDMAKNIVKAVERCGLKVDQLIFAGLASSYSVLTEDERELGVCVVDIGGGTMDIAVYTGGALRHTKVIPYAGNVVTSDIAYAFGTPPSDAEAIKVRHGCALGSIVGKDESVEVPSVGGRPPRSLQRQTLAEVIEPRYTELLNLVNEEILQLQEKLRQQGVKHHLAAGIVLTGGAAQIEGLAACAQRVFHTQVRIGAPLNITGLTDYAQEPYYSTAVGLLHYGKESHLNGEAEVEKRVTASVGSWIKRLNSWLRKEF
notes: FtsA, actin homologue of the divisome, Escherichia coli, wild type; ATP is thought to be present in the preparation; 0.05 mM ADP was added for storage; also called WT FtsA; His6-tagged FtsA

What was measured:
[1] = target: the molecule itself; experiment: negative stain transmission electron microscopy on lipid monolayers; E. coli polar lipid monolayer under an EM grid, on storage buffer lacking EDTA (50 mM Tris pH 7.5, 250 mM KCl, 10 mM MgCl2, 10% glycerol). Added in turn: 0.1-1 uM FtsA (40 min), 4 mM ATP (20 min), 5 uM FtsZ (5 min), 4 mM GTP (20 min). Stained with 1% uranyl acetate.
[2] = target: B1; experiment: as above; details: both partners purified
[3] = target: the molecule itself; experiment: negative stain electron tomography with subtomogram averaging; FtsA minirings with FtsZ protofilaments on lipid monolayers; 300 kV, single-axis tilt series -60 to +60 degrees; 23 tomograms; 18,400 ring-like structures averaged and classified

Binder | binding result [1] | binding result [2] | stoichiometry N [3]
Escherichia coli FtsZ (natural protein, E. coli, UniProt P0A9A6 1-383, looked up, FtsZ, tubulin homologue, Escherichia coli, wild type; Assembled with GTP in the assay; also called WT FtsZ; source: E. coli BL21(DE3), from a pET11 plasmid, purified (ammonium sulfate precipitation)) MFEPMELTNDAVIKVIGVGGGGGNAVEHMVRERIEGVEFFAVNTDAQALRKTAVGQTIQIGSGITKGLGAGANPEVGRNAADEDRDALRAALEGADMVFIAAGMGGGTGTGAAPVVAEVAKDLGILTVAVVTKPFNFEGKKRMAFAEQGITELSKHVDSLITIPNDKLLKVLGRGISLLDAFGAANDVLKGAVQGIAELITRPGLMNVDFADVRTVMSEMGYAMMGSGVASGEDRAEEAAEMAISSPLLEDIDLSGARGVLVNITAGFDLRLDEFETVGNTIRAFASDNATVVIGTSLDPDMNDELRVTVVATGIGMDKRPEITLVTNKQVQQPVMDRYQQHGMAPLTQEQKPVAKVVNDNAPQTAKEPDYLDIPAFLRKQAD | binds | binds | –
FtsZ* (FtsZ L169R) (natural protein, E. coli, UniProt P0A9A6 1-383, looked up, FtsZ, Escherichia coli, gain-of-function mutant L169R (FtsZ*); Assembled with GTP in the assay; source: E. coli BL21(DE3), from a pET11 plasmid, purified (ammonium sulfate precipitation)) MFEPMELTNDAVIKVIGVGGGGGNAVEHMVRERIEGVEFFAVNTDAQALRKTAVGQTIQIGSGITKGLGAGANPEVGRNAADEDRDALRAALEGADMVFIAAGMGGGTGTGAAPVVAEVAKDLGILTVAVVTKPFNFEGKKRMAFAEQGITELSKHVDSLITIPNDKLRKVLGRGISLLDAFGAANDVLKGAVQGIAELITRPGLMNVDFADVRTVMSEMGYAMMGSGVASGEDRAEEAAEMAISSPLLEDIDLSGARGVLVNITAGFDLRLDEFETVGNTIRAFASDNATVVIGTSLDPDMNDELRVTVVATGIGMDKRPEITLVTNKQVQQPVMDRYQQHGMAPLTQEQKPVAKVVNDNAPQTAKEPDYLDIPAFLRKQAD | binds | binds | –
B1 | – | – | 12 subunits
